One block for each binder: values may come before it. Where no end group is shown, it is not given here.
Assays:
[1] = target: T1, Her2-Fc (human, UniProt P04626 23-652); assay: ELISA on coated Her2-Fc; 24 h in human serum at 37 C
T1 construct: Coated in ELISA
Description: (§1) High binding plates (Greiner, 781061) were immobilized with 2.5 μg/ml hFAP-Fc or 1.2 μg/ml Her2-Fc over night at 4° C. Dilution series of 3 μM to 0.07 pM of fusion proteins with binding specifically to Her2 were incubated in 100% human serum or 100% mouse serum for 24 h at 37° C. Dilution series of 3 µM to 0.2 pM or 1 μM to 0.01 fM of fusion proteins with binding specifically to hFAP were incubated in 100% human serum or 100% mouse serum for 24 h at 37° C. ELISA-plates were washed three times with PBST (PBS+0.1% Tween) and blocked with 3% BSA/0.5% Tween/PBS up to 2 h at room temperature (rt). After preincubation for 0 h or 24 h in the presence of serum the dilution series were incubated on ELISA-plates for up to 1 h at rt. Wells were washed with PBST and incubated with biotinylated anti-ubiquitin-antibody (1:300) for up to 1 h at rt. The binding was visualized with Streptavidin-HRP (1:5.000).
(§2) The fusion proteins comprise the albumin binding domain (referred to as HED) and the targeting moiety.

[2] = target: T2, Her2 expressed on Sk-Br-3 cells (human, UniProt P04626 23-1255); assay: flow cytometry, dilution series on Sk-Br-3 cells
T2 construct: whole, on cells; also called human epidermal growth factor receptor 2
Description: Her2 expressing Sk-Br-3-cells and HEK293-hFAP overexpressing cells were thawed, washed with medium containing FCS, subsequently washed with FACS blocking buffer (PBS/0.1% Sodium Azide/3% FCS) and 100 μl seeded in 96-well round bottom plates with a density of 1×10⁶ cells/ml. Dilution series from 10 µM to 8.6 fM (CID 217781, CID 217787) and a dilution series of 3 µM to 0.2 μM (CID 218466, CID 218467, 218512, CID 218513, CID 218514, CID 218515, CID 218516) were incubated on Her2-expressing Sk-Br-3-cells and dilution series from 1 μM to 0.07 μM of fusion proteins 218690 and 218702 were incubated on hFAP-overexpressing HEK293-cell line for 45 min at 4° C. After centrifugation the supernatants were removed and cells were washed with FACS blocking buffer and 100 μl/well rabbit anti-Strep-Tag antibody (GenScript; A00626), 1:300 diluted in FACS blocking buffer were added. After removal of the primary antibody goat anti-rabbit IgG Alexa Fluor 488 antibody (Invitrogen; A4008) was applied in a 1:1000 dilution in FACS blocking buffer. Flow cytometry measurement was conducted on the Guava easyCyte 5HT device from Merck-Millipore at excitation wavelength 488 nm and emission wavelength 525/30 nm. The * in table 2 refers to a fusion protein with the albumin binding domain as dimer (homo-dimer) and/or the targeting moiety as dimer.

[3] = target: T1, Her2-Fc; assay: ELISA on coated Her2-Fc; KD 24 h against KD 0 h, mouse serum
Description: as §1, §2

[4] = target: T1, Her2-Fc; assay: ELISA on coated Her2-Fc; 0 h in human serum
Description: as §1, §2

[5] = target: T1, Her2-Fc; assay: ELISA on coated Her2-Fc; 0 h in mouse serum
Description: as §1, §2

[6] = target: T1, Her2-Fc; assay: ELISA on coated Her2-Fc; KD 24 h against KD 0 h, human serum
Description: as §1, §2

[7] = target: T1, Her2-Fc; assay: ELISA on coated Her2-Fc; 24 h in mouse serum at 37 C
Description: as §1, §2

[8] = target: T3, human serum albumin (human, UniProt P02768 25-609); assay: SPR, HSA immobilised on the chip, pH 7.3, 1:1 Langmuir fit
T3 construct: also called HSA
Description: (§3) Recombinant protein A, HSA, MSA or target (either ED-B or Her2) was immobilized on a High Capacity Amine sensor chip (Bruker) after NHS/EDC activation with a Sierra SPR-32 system (Bruker). The chip was equilibrated with SPR running buffer (PBS 0.05%, Tween pH 7.3). Injection of ethanolamine after target immobilization was used to block free NHS groups. To determine the binding of fusion proteins to FAP, the Fc-tagged target was injected with 60 or 30 nM to Protein A coupled spots followed by the injection of fusion proteins.
(§4) Binding proteins were applied to the chip in serial dilutions with a flow rate of 30 μl/min. Upon binding, analyte accumulated on the surface increasing the refractive index. This change in the refractive index was measured in real time and plotted as response or resonance units versus time. The association was performed for 120 seconds and the dissociation for 180 seconds. After each run, the chip surface was regenerated with 30 μl regeneration buffer (10 mM glycine pH 2.0 or pH 1.5) and equilibrated with running buffer. Binding studies were carried out using the Sierra SPR-32 system (Bruker); data evaluation was operated via the Sierra Analyser software, provided by the manufacturer, by the use of the Langmuir 1:1 model (RI=0).

[9] = target: T1, Her2-Fc; assay: ELISA on coated Her2-Fc; after 24 h in human serum at 37 C
Description: as §1, §2

[10] = target: T1, Her2-Fc; assay: ELISA on coated Her2-Fc; after 24 h in mouse serum at 37 C
Description: as §1, §2

[11] = target: T4, Her2 (immobilised on the SPR chip) (human, UniProt P04626 23-652, limits assumed); assay: SPR, Her2 immobilised on the chip, pH 7.3, 1:1 Langmuir fit
T4 construct: construct not described; also called human epidermal growth factor receptor 2
Description: as §3, §4

[12] = target: T5, human fibroblast activation protein (hFAP) expressed on the surface of HEK293-hFAP cells (human, UniProt Q12884 1-760); assay: flow cytometry on HEK293-hFAP cells
T5 construct: whole, on cells; FAP overexpressing HEK293 cell line
T5 sequence (looked up): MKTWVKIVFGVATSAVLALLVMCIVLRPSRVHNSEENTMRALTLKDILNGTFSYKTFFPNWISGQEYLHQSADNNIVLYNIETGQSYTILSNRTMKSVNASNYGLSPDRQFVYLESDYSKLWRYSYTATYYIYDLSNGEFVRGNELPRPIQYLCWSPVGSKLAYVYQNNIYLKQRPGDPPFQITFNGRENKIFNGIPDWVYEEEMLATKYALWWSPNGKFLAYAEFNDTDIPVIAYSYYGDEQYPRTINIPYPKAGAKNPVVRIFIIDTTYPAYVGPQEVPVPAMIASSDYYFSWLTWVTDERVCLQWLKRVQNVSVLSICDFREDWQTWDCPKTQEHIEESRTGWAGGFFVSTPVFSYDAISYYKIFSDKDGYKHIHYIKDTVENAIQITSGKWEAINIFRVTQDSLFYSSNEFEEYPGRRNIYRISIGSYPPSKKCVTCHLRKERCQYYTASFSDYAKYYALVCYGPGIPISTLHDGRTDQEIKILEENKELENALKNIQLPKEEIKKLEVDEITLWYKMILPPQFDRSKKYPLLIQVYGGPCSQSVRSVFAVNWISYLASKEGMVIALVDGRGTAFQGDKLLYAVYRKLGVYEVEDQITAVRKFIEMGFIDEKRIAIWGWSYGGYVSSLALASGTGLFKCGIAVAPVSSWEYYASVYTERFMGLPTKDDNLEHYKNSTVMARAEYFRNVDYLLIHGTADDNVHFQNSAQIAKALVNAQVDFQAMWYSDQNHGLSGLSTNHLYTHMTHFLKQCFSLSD
Description: Fusion proteins were tested with a concentration of 1 μM, 100 nM, 10 nM, 1 nM or 0.1 nM on hFAP expressing HEK293-hFAP-cells. To exclude an unspecific binding, fusion proteins were also incubated on control cells HEK293-pEntry with the same concentrations. […] Supernatants were removed after 45 min, cells were washed in blocking buffer and 100 μl/well rabbit anti-StrepTag antibody (GenScript; A00626), 1:300 diluted in FACS blocking buffer were added. […] Flow cytometry measurement was conducted on the Guava easyCyte 5HT device from Merck-Millipore at excitation wavelength 488 nm and emission wavelength 525/30 nm.

[13] = target: T3, human serum albumin; assay: SPR, HSA immobilised
Description: as §3, §4

[14] = target: T6, mouse serum albumin (mouse, UniProt P07724 25-608); assay: SPR, MSA immobilised
T6 construct: also called MSA
Description: as §3, §4

T3 sequence (P02768 25-609 limits assumed): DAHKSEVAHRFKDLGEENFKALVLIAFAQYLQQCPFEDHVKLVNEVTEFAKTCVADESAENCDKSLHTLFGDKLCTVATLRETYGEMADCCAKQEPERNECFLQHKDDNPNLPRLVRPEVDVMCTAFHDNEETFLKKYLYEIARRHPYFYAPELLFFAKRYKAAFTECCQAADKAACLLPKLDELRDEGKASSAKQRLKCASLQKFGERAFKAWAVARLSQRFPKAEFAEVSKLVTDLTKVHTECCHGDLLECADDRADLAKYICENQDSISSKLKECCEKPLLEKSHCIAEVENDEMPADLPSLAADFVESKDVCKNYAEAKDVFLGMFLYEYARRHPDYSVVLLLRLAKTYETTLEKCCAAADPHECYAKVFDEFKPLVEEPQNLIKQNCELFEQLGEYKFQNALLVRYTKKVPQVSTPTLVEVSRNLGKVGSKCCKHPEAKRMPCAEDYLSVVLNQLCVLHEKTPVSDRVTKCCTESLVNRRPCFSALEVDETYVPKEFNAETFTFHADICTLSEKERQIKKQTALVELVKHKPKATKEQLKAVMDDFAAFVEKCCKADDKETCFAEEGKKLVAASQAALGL

B2: fusion protein 218691 (designed binder, not shown: small tags and cut ends)
chain (part 1 of 2): not shown
chain (part 2 of 2): LAEAKVLALKELDKYGISNYYKNLINNAKTIEGVKALKAQIVAA
notes: also called CID 218691
- binding result [12]: binds

B3: Fusion proteins with albumin binding domain c45 (SEQ ID NO: 35) (designed binder, not shown: small tags and cut ends)
chain: LAEAKVLALKELDKYGISNGYKNLINNAKTIEGVKALKDEIVAA
modifications: also: part of fusion protein, targeting moiety, linker, tag and order not given here
- Kd [13]: ≥ 100 nM
- Kd [14]: ≥ 100 nM

B7: Fusion proteins with albumin binding domain c50 (SEQ ID NO: 38) (designed binder, not shown: small tags and cut ends)
chain: LAEAKVLALKELDKYGISNYGKNLINNAKTIEGVEALKDAILAA
modifications: also: part of fusion protein, targeting moiety, linker, tag and order not given here
- Kd [13]: ≥ 100 nM
- Kd [14]: ≥ 100 nM

Next, values leading:

- Kd [1]: 0.28 nM
- Kd [2]: 1.47 nM
- increase of KD vs target [fold] [3]: 1.16 fold
- Kd [4]: 0.34 nM
- Kd [5]: 0.18 nM
- increase of KD vs target [fold] [6]: 0.82 fold
- Kd [7]: 0.21 nM
- Kd [8]: 9.1 nM
- max binding after 24 h [%] [9]: 96.1%
- max binding after 24 h [%] [10]: 108%
- Kd [11]: 2.5 nM
B1: fusion protein 218515 (designed binder, not shown: small tags and cut ends)
chain (part 1 of 2): not shown
chain (part 2 of 2): LAEAKVLALKELDKYGISNYYKNLINNAKTIEGVKALKAQIVAA
notes: also called CID 218515

- binding result [12]: binds
B4: fusion protein 218699 (designed binder, not shown: small tags and cut ends)
chain (part 1 of 2): not shown
chain (part 2 of 2): LAEAKVLALKELDKYGISNYYKNLINNAKTVEGVKALKEAIVAA
notes: also called CID 218699

- binding result [12]: binds
B5: fusion protein 218704 (designed binder, not shown: small tags and cut ends)
chain (part 1 of 2): not shown
chain (part 2 of 2): LAEAKVLAIKELDKAGISNYYFNLINNAKTVEGVKDLKAQIVAA
notes: also called CID 218704

- Kd [1]: 0.28 nM
- Kd [2]: 2.57 nM
- increase of KD vs target [fold] [3]: 1.21 fold
- Kd [4]: 0.39 nM
- Kd [5]: 0.17 nM
- increase of KD vs target [fold] [6]: 0.71 fold
- Kd [7]: 0.2 nM
- Kd [8]: 10.9 nM
- max binding after 24 h [%] [9]: 98.9%
- max binding after 24 h [%] [10]: 101%
- Kd [11]: 2.4 nM
B6: fusion protein 218516 (designed binder, not shown: small tags and cut ends)
chain (part 1 of 2): not shown
chain (part 2 of 2): LAEAKVLAIKELDKAGISNYYFNLINNAKTVEGVKALKAQIVAA
notes: also called CID 218516

Reference: patent publication US20250388696A1 (NAVIGO PROTEINS, published 2025)
